# Results taken from patent publication US20240117018A1.
# Key:
# Test in all cases: cell-based or functional assay
# [1] = target: HIV-1 Env of pseudovirus 3016.v5.c45 (HIV-1)
# [2] = target: HIV-1 Env of pseudovirus C4118.c09 (HIV-1)
# [3] = target: HIV-1 Env of pseudovirus 231966.c02 (HIV-1)
# [4] = target: HIV-1 Env of pseudovirus X1193_c1 (HIV-1)
# [5] = target: HIV-1 Env of pseudovirus P1981_C5_3 (HIV-1)
# [6] = target: HIV-1 Env of pseudovirus BJOX025000.01.1 (HIV-1)
# [7] = target: HIV-1 Env of pseudovirus BJOX009000.02.4 (HIV-1)
# [8] = target: HIV-1 Env of pseudovirus X2131_C1_B5 (HIV-1)
# [9] = target: HIV-1 Env of pseudovirus R1166.c01 (HIV-1)
# [10] = target: HIV-1 Env of pseudovirus X1632_S2_B10 (HIV-1)
# [11] = target: HIV-1 Env of pseudovirus 235-47 (HIV-1)
# [12] = target: HIV-1 Env of pseudovirus 620345.c01 (HIV-1)
# [13] = target: HIV-1 Env of pseudovirus C3347.c11 (HIV-1)
# [14] = target: HIV-1 Env of pseudovirus 3817.v2.c59 (HIV-1)
# [15] = target: HIV-1 Env of pseudovirus 6811.v7.c18 (HIV-1)
# [16] = target: HIV-1 Env of pseudovirus 89-F1_2_25 (HIV-1)
# [17] = target: HIV-1 Env of pseudovirus 211-9 (HIV-1)
# [18] = target: HIV-1 Env of pseudovirus BJOX015000.11.5 (HIV-1)
# [19] = target: HIV-1 Env of pseudovirus R2184.c04 (HIV-1)
# [20] = target: HIV-1 Env of pseudovirus 6540.v4.c1 (HIV-1)
# [21] = target: HIV-1 Env of pseudovirus T251-18 (HIV-1)
# [22] = target: HIV-1 Env of pseudovirus C1080.c03 (HIV-1)
# [23] = target: HIV-1 Env of pseudovirus 6545.v4.c1 (HIV-1)
# [24] = target: HIV-1 Env of pseudovirus 231965.c01 (HIV-1)
# [25] = target: HIV-1 Env of pseudovirus 6041.v3.c23 (HIV-1)
# [26] = target: HIV-1 Env of pseudovirus 3301.v1.c24 (HIV-1)
# [27] = target: HIV-1 Env of pseudovirus T255-34 (HIV-1)
# [28] = target: HIV-1 Env of pseudovirus 6480.v4.c25 (HIV-1)
# [29] = target: HIV-1 Env of pseudovirus 3103.v3.c10 (HIV-1)
# [30] = target: HIV-1 Env of pseudovirus BJOX028000.10.3 (HIV-1)
# [31] = target: HIV-1 Env of pseudovirus 6952.v1.c20 (HIV-1)
substance,measurement,setting,value
PG9 (antibody),IC50 neutralization (TZM.bl),[1],2.46 µg/mL
same,IC80 neutralization (TZM.bl),[1],> 50 µg/mL
same,IC50 neutralization (TZM.bl),[2],0.068 µg/mL
same,IC80 neutralization (TZM.bl),[2],0.2 µg/mL
same,IC50 neutralization (TZM.bl),[3],0.075 µg/mL
same,IC80 neutralization (TZM.bl),[3],0.257 µg/mL
same,IC50 neutralization (TZM.bl),[4],0.105 µg/mL
same,IC80 neutralization (TZM.bl),[4],0.304 µg/mL
same,IC50 neutralization (TZM.bl),[5],0.258 µg/mL
same,IC80 neutralization (TZM.bl),[5],2.51 µg/mL
same,IC50 neutralization (TZM.bl),[6],0.144 µg/mL
same,IC80 neutralization (TZM.bl),[6],0.335 µg/mL
same,IC50 neutralization (TZM.bl),[7],1.73 µg/mL
same,IC80 neutralization (TZM.bl),[7],8.21 µg/mL
same,IC50 neutralization (TZM.bl),[8],0.084 µg/mL
same,IC80 neutralization (TZM.bl),[8],0.286 µg/mL
same,IC50 neutralization (TZM.bl),[9],0.736 µg/mL
same,IC80 neutralization (TZM.bl),[9],2.88 µg/mL
same,IC50 neutralization (TZM.bl),[10],0.107 µg/mL
same,IC80 neutralization (TZM.bl),[10],0.934 µg/mL
same,IC50 neutralization (TZM.bl),[11],0.233 µg/mL
same,IC80 neutralization (TZM.bl),[11],1.2 µg/mL
same,IC50 neutralization (TZM.bl),[12],1.33 µg/mL
same,IC80 neutralization (TZM.bl),[12],> 50 µg/mL
same,IC50 neutralization (TZM.bl),[13],0.032 µg/mL
same,IC80 neutralization (TZM.bl),[13],0.113 µg/mL
same,IC50 neutralization (TZM.bl),[14],0.02 µg/mL
same,IC80 neutralization (TZM.bl),[14],0.062 µg/mL
same,IC50 neutralization (TZM.bl),[15],> 50 µg/mL
same,IC80 neutralization (TZM.bl),[15],> 50 µg/mL
same,IC50 neutralization (TZM.bl),[16],0.668 µg/mL
same,IC80 neutralization (TZM.bl),[16],10.1 µg/mL
same,IC50 neutralization (TZM.bl),[17],0.049 µg/mL
same,IC80 neutralization (TZM.bl),[17],0.243 µg/mL
same,IC50 neutralization (TZM.bl),[18],0.322 µg/mL
same,IC80 neutralization (TZM.bl),[18],1.49 µg/mL
same,IC50 neutralization (TZM.bl),[19],0.255 µg/mL
same,IC80 neutralization (TZM.bl),[19],1.24 µg/mL
same,IC50 neutralization (TZM.bl),[20],0.07 µg/mL
same,IC80 neutralization (TZM.bl),[20],0.253 µg/mL
same,IC50 neutralization (TZM.bl),[21],> 50 µg/mL
same,IC80 neutralization (TZM.bl),[21],> 50 µg/mL
same,IC50 neutralization (TZM.bl),[22],0.004 µg/mL
same,IC80 neutralization (TZM.bl),[22],0.013 µg/mL
same,IC50 neutralization (TZM.bl),[23],0.099 µg/mL
same,IC80 neutralization (TZM.bl),[23],0.351 µg/mL
same,IC50 neutralization (TZM.bl),[24],1.28 µg/mL
same,IC80 neutralization (TZM.bl),[24],48 µg/mL
same,IC50 neutralization (TZM.bl),[25],0.244 µg/mL
same,IC80 neutralization (TZM.bl),[25],3.64 µg/mL
same,IC50 neutralization (TZM.bl),[26],0.216 µg/mL
same,IC80 neutralization (TZM.bl),[26],0.756 µg/mL
same,IC50 neutralization (TZM.bl),[27],0.023 µg/mL
same,IC80 neutralization (TZM.bl),[27],0.134 µg/mL
same,IC50 neutralization (TZM.bl),[28],> 50 µg/mL
same,IC80 neutralization (TZM.bl),[28],> 50 µg/mL
same,IC50 neutralization (TZM.bl),[29],28 µg/mL
same,IC80 neutralization (TZM.bl),[29],> 50 µg/mL
same,IC50 neutralization (TZM.bl),[30],1.1 µg/mL
same,IC80 neutralization (TZM.bl),[30],21.5 µg/mL
same,IC50 neutralization (TZM.bl),[31],> 50 µg/mL
same,IC80 neutralization (TZM.bl),[31],> 50 µg/mL
